Measurements published in patent US20210187069A1.
Positions count from the first letter of the chain named. Names may count otherwise.

Molecular target: T1, wildtype SARM1 (endogenous, in wildtype mouse dorsal root ganglion neurons) (mouse) (UniProt Q6PDS3)
T1 sequence (looked up): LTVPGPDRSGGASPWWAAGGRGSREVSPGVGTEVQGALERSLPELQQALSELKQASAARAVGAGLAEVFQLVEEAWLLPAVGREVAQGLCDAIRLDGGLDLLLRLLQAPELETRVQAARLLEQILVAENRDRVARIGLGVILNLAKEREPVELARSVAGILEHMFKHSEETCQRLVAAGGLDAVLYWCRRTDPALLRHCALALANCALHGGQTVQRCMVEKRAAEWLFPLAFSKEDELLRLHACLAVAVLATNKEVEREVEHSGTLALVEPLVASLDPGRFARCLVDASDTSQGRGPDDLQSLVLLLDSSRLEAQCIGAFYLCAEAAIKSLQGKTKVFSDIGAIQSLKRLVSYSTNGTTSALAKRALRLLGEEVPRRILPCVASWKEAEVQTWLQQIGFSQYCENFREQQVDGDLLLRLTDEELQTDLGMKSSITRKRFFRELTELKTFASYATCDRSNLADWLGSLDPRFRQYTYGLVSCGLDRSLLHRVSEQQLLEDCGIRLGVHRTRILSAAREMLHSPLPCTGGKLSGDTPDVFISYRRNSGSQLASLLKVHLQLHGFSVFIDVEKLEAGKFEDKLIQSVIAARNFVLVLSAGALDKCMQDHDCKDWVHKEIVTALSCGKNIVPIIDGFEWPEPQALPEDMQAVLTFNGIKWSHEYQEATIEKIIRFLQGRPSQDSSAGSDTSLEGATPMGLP
Experiment: cell-based or functional assay

B1: SARM1-deltaTIR (enzyme, not shown: large carriers)
chain: MLAVPGPDGGGGTGPWWAAGGRGPREVSPGAGTEVQDALERALPELQQALSALKQAGGARAVGAGLAEVFQLVEEAWLLPAVGREVAQGLCDAIRLDGGLDLLLRLLQAPELETRVQAARLLEQILVAENRDRVARIGLGVILNLAKEREPVELARSVAGILEHMFKHSEETCQRLVAAGGLDAVLYWCRRTDPALLRHCALALGNCALHGGQAVQRRMVEKRAAEWLFPLAFSKEDELLRLHACLAVAVLATNKEVEREVERSGTLALVEPLVASLDPGRFARCLVDASDTSQGRGPDDLQRLVPLLDSNRLEAQCIGAFYLCAEAAIKSLQGKTKVFSDIGAIQSLKRLVSYSTNGTKSALAKRALRLLGEEVPRPILPSVPSWKEAEVQTWLQQIGFSKYCESFREQQVDGDLLLRLTEEELQTDLGMKSGITRKRFFRELTELKTFANYSTCDRSNLADWLGSLDPRFRQYTYGLVSCGLDRSLLHRVSEQQLLEDCGIHLGVHRARILTAAREMLHSPLPCTGGKPSGDATT
An axon degeneration (degeneration index) after axotomy of wildtype DRG neurons of 36 h was found for B1 in this work.

B2: SARM1-K597E (enzyme, not shown: large carriers)
chain: LAVPGPDGGGGTGPWWAAGGRGPREVSPGAGTEVQDALERALPELQQALSALKQAGGARAVGAGLAEVFQLVEEAWLLPAVGREVAQGLCDAIRLDGGLDLLLRLLQAPELETRVQAARLLEQILVAENRDRVARIGLGVILNLAKEREPVELARSVAGILEHMFKHSEETCQRLVAAGGLDAVLYWCRRTDPALLRHCALALGNCALHGGQAVQRRMVEKRAAEWLFPLAFSKEDELLRLHACLAVAVLATNKEVEREVERSGTLALVEPLVASLDPGRFARCLVDASDTSQGRGPDDLQRLVPLLDSNRLEAQCIGAFYLCAEAAIKSLQGKTKVFSDIGAIQSLKRLVSYSTNGTKSALAKRALRLLGEEVPRPILPSVPSWKEAEVQTWLQQIGFSKYCESFREQQVDGDLLLRLTEEELQTDLGMKSGITRKRFFRELTELKTFANYSTCDRSNLADWLGSLDPRFRQYTYGLVSCGLDRSLLHRVSEQQLLEDCGIHLGVHRARILTAAREMLHSPLPCTGGKPSGDTPDVFISYRRNSGSQLASLLKVHLQLHGFSVFIDVEELEAGKFEDKLIQSVMGARNFVLVLSPGALDKCMQDHDCKDWVHKEIVTALSCGKNIVPIIDGFEWPEPQVLPEDMQAVLTFNGIKWSHEYQEATIEKIIRFLQGRSSRDSSAGSDTSLEGAAPMGPTATT
An axon degeneration (degeneration index) after axotomy of wildtype DRG neurons of 36 h was found for B2 in this work.

B3: SARM1-K193R/E642A (enzyme, not shown: large carriers)
chain: B2 chain with K166R, E570K, E615A
An axon degeneration after 40 nM vincristine, wildtype DRG neurons of over 120 h was found for B3 in this work.

B4: SARM1-K193R/H194A/H685A (SARM1-compound dominant negative) (enzyme, not shown: large carriers)
chain: B2 chain with K166R, H167A, E570K, H658A
An axon degeneration (degeneration index) and TMRM-positive mitochondria after axotomy of wildtype DRG neurons of over 96 h, an axon degeneration after 40 nM vincristine, wildtype DRG neurons of over 120 h and an axon degeneration and TMRM-positive mitochondria after 40 nM vincristine, wildtype DRG neurons of over 96 h were found for B4 in this work.

B5: SARM1-K193R (enzyme, not shown: large carriers)
chain: B2 chain with K166R, E570K
An axon degeneration (degeneration index) after axotomy of wildtype DRG neurons of 72 h was found for B5 in this work.

B6: SARM1 D627K (enzyme, not shown: large carriers)
chain: B2 chain with E570K, D600K
An axon degeneration after axotomy of 24 h was found for B6 in this work.

B7: SARM1-E642A (enzyme, not shown: large carriers)
chain: B2 chain with E570K, E615A
A mitochondrial membrane potential (TMRM fluorescence) in severed axons of wildtype DRG neurons of 24 h was found for B7 in this work.

B8: SARM1 K628D (enzyme, not shown: large carriers)
chain: B2 chain with E570K, K601D
An axon degeneration after axotomy of 24 h was found for B8 in this work.

B9: SARM1-K193R/H685A (enzyme, not shown: large carriers)
chain: B2 chain with K166R, E570K, H658A
An axon degeneration after axotomy of wildtype DRG neurons of over 120 h was found for B9 in this work.

B10: SARM1-H685A (enzyme, not shown: large carriers)
chain: B2 chain with E570K, H658A
An axon degeneration (degeneration index) after axotomy of wildtype DRG neurons of 72 h was found for B10 in this work.

B11: SARM1 C629S (enzyme, not shown: large carriers)
chain: B2 chain with E570K, C602S
An axon degeneration after axotomy of 24 h was found for B11 in this work.

B12: SARM1-H685A/E642A (enzyme, not shown: large carriers)
chain: B2 chain with E570K, E615A, H658A
An axon degeneration after 40 nM vincristine, wildtype DRG neurons of over 120 h was found for B12 in this work.

B13: SARM1-H685Y (enzyme, not shown: large carriers)
chain: B2 chain with E570K, H658Y
An axon degeneration (degeneration index) after axotomy of wildtype DRG neurons of 72 h was found for B13 in this work.
